Source: the supplement of paper PMC10724198
± gives the standard deviation of the averaged measurements.

Test system: Saccharomyces cerevisiae
Experiment: protein stability index of tFT-peptide fusion (C-terminal peptide) (PSI (0-1 scale)); higher = more stable (slower turnover)
Conditions: genetic background: wild type; temperature: 30 C
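Note: PSI is a weighted mean of sequencing reads over stability bins, variants kept only with over 10 reads, mCherry proximal and sfGFP distal, peptide attached via GGGS linker.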

Point of comparison: RAGHREIARQKG, protein stability index 0.6307 ± 0.0013. Against it:
- QVFKHVKHIEFD — higher, 0.725 ± 0.062
- QVHPKRPLNQSL — higher, 0.735 ± 0.054
- QVSLLVKKSKLR — within error, 0.679 ± 0.049
- QVYGEWASAGWG — higher, 0.718 ± 0.04
- QWLGRDLKSREL — within error, 0.691 ± 0.064
- RACKKGTKRIRI — within error, 0.613 ± 0.06
- RAGPPPPPSITL — higher, 0.83 ± 0.085
- RAGRVRAPGRWP — higher, 0.728 ± 0.017
- RAIRWFGGRLVG — higher, 0.7228 ± 0.0049
- RAKGTGRRLGVA — higher, 0.676 ± 0.013
- RALVIKREALQI — lower, 0.59 ± 0.03
- RASGNHVNQVDC — higher, 0.719 ± 0.036
- RASGSFPSLVFS — within error, 0.734 ± 0.12
- RASWVRTLMSCQ — lower, 0.58161 ± 0.00022
- RATERIVNIKGK — higher, 0.63277 ± 0.00036
- RATLPPSAASLP — within error, 0.677 ± 0.1
- RATSCAAPLLAR — lower, 0.6009 ± 0.0047
- RATTDGGRGGRR — higher, 0.696 ± 0.037
- RAVAGGPMPGSG — higher, 0.732 ± 0.044
- RCAIMGRGGIVT — higher, 0.686 ± 0.018
- RCGVGGAVSFWW — higher, 0.72 ± 0.05
- RCLGVCRAESLP — higher, 0.682 ± 0.034
- RCQYRRTMSITI — within error, 0.635 ± 0.034
- RCRNVGAVATPR — within error, 0.643 ± 0.1
- RCSDILGKGKHV — higher, 0.661 ± 0.0084
- RDAGPSKERNRR — higher, 0.675 ± 0.039
- RDARTWTVSHGT — higher, 0.703 ± 0.033
- RDELSYIDICLT — higher, 0.691 ± 0.025
- RDFLLLASHLRF — higher, 0.764 ± 0.056
- RDGYMVKVYGVK — within error, 0.707 ± 0.1
- RDLEAVRSEDHR — higher, 0.6766 ± 0.0047
- RDLLYHNCRNMI — higher, 0.695 ± 0.027
- RDLYHPFQSHQS — higher, 0.705 ± 0.019
- RDPSVVGLGRPP — lower, 0.604 ± 0.0076
- RDPTTYGRSKEN — within error, 0.655 ± 0.023
- RDQPPPLPFTRP — within error, 0.712 ± 0.1
- RDRGWSRGRQVH — higher, 0.662 ± 0.015
- RDSKDMTWISTS — higher, 0.6755 ± 0.0024
- RDSVLSFSALQV — higher, 0.681 ± 0.0097
- REIVLQTSAAYN — within error, 0.613 ± 0.037
- REKRSVTQSTTD — higher, 0.796 ± 0.12
- REKSLKINKKKN — higher, 0.676 ± 0.0068
- RERLSRGGEGFE — higher, 0.693 ± 0.021
- RERRGPTDLKRH — higher, 0.712 ± 0.041
- RFARQSNTFSQS — higher, 0.659 ± 0.013
- RFASGAVLSWAC — higher, 0.695 ± 0.015
- RFEISNLVFIPR — higher, 0.686 ± 0.033
- RFFGAVSFQFCL — higher, 0.699 ± 0.011
- RFFYGGRRTQQT — higher, 0.753 ± 0.058
- RFLAHLVRPFCG — higher, 0.722 ± 0.039
- RFNGWRDKEAME — higher, 0.707 ± 0.036
- RFNLLLSATEDR — higher, 0.716 ± 0.07
- RFPFFLLPPLSS — within error, 0.65 ± 0.091
- RFPLLAPPRPLP — higher, 0.7318 ± 0.0043
- RFPLLPLLRPPP — higher, 0.6494 ± 0.0031
- RFPPPPPPPPLL — higher, 0.718 ± 0.078
- RFSLGLIFLPSL — higher, 0.68 ± 0.044
- RFSYFPALFFPS — higher, 0.678 ± 0.043
- RFVDLASFLTFR — lower, 0.587 ± 0.031
- RGAEACGGVPGQ — higher, 0.671 ± 0.024
- RGAKKMNHRGRS — within error, 0.675 ± 0.052
- RGDHPAAGFPCG — higher, 0.686 ± 0.033
- RGFVVGGGGWLG — higher, 0.706 ± 0.051
- RGGAGGRKVSVG — within error, 0.651 ± 0.05
- RGGAGGRLGCGG — higher, 0.71 ± 0.071
- RGGGFIGSFFMG — within error, 0.751 ± 0.15
- RGGGGAWAGGVA — higher, 0.734 ± 0.019
- RGGGGGEWGEQR — higher, 0.702 ± 0.046
- RGGGGGSVSFWW — within error, 0.676 ± 0.071
- RGGGGPTVEDRR — higher, 0.681 ± 0.007
- RGGGGRGGSEGS — higher, 0.686 ± 0.017
- RGGPPPPPSITL — higher, 0.851 ± 0.12
- RGGSVGRGRLCL — within error, 0.643 ± 0.014
- RGHLPPIGLTRH — higher, 0.675 ± 0.013
- RGILGAGGAGRG — higher, 0.744 ± 0.079
- RGKATREAGKKR — higher, 0.7916 ± 0.0028
- RGLLLSRRWFSP — within error, 0.641 ± 0.099
- RGPPGVPGSDML — higher, 0.673 ± 0.023
- RGPSGARRQPGL — higher, 0.6658 ± 0.0044
- RGRAGPVVRELT — within error, 0.646 ± 0.097
- RGRGEVRGVGGG — within error, 0.698 ± 0.067
- RGRRGAGTGRGP — higher, 0.657 ± 0.019
- RGRSVEGSRGGW — higher, 0.6781 ± 0.0048
- RGRWGGGRVVRG — higher, 0.6944 ± 0.0062
- RGSGCAFLFAWF — within error, 0.654 ± 0.092
- RGSPDRPGGPLP — higher, 0.7322 ± 0.0028
- RGTGPPGALREE — within error, 0.653 ± 0.046
- RGVCVGGGCWLV — within error, 0.624 ± 0.034
- RGWGGGRVAREC — within error, 0.657 ± 0.026
- RGWWVLCGGGGG — lower, 0.57 ± 0.044
- RGWWVRGGVLWC — within error, 0.677 ± 0.048
- RGYSGSLSVVIY — within error, 0.657 ± 0.057
- RGYVNVWTRLGN — higher, 0.717 ± 0.043
- RHENKKDKIRME — within error, 0.701 ± 0.11
- RHKLYPRIVLNR — higher, 0.699 ± 0.055
- RHLPPAPAPRFI — within error, 0.717 ± 0.2
- RHPPPPPPALTP — higher, 0.707 ± 0.054
- RHSLPSPPAFCL — higher, 0.723 ± 0.0092
- RHTARQSTTWRG — within error, 0.695 ± 0.071
- RIAAVRVEGRDD — higher, 0.708 ± 0.026
- RIADSLTPAHPA — higher, 0.699 ± 0.023
- RIEIVDVQFLWE — higher, 0.7 ± 0.048
- RIEKNTKRSEIW — higher, 0.665 ± 0.021
- RIHAVINLLMND — within error, 0.651 ± 0.039
- RIKAKKNKTMKR — higher, 0.655 ± 0.021
- RIKRTMNEKIRK — higher, 0.68 ± 0.0041
- RIPSKSHAWVLV — lower, 0.483 ± 0.058
- RITTNQMNIKFI — higher, 0.653 ± 0.02
- RIWKKKRYNEKS — within error, 0.681 ± 0.12
- RKASQEQYHQRH — within error, 0.648 ± 0.05
- RKCHCPGGGRRI — higher, 0.7171 ± 0.00079
- RKDEKRGTVIIA — within error, 0.62 ± 0.021
- RKGHKSNRSKNE — higher, 0.705 ± 0.03
- RKINKQKRTKEE — higher, 0.6449 ± 0.0023
- RKKEKKQKKKKG — higher, 0.688 ± 0.043
- RKKIRKNITQQP — higher, 0.692 ± 0.052
- RKKKKKNKNEKE — higher, 0.713 ± 0.04
- RKKKNRKERQKK — higher, 0.6725 ± 0.00086
- RKKPRKLRETDN — within error, 0.649 ± 0.053
- RKLNEKTRYKRR — higher, 0.7788 ± 0.003
- RKMYRIKKEIKI — within error, 0.641 ± 0.098
- RKNTSRESGLTR — within error, 0.632 ± 0.026
- RKSDGMKSCLMG — higher, 0.684 ± 0.016
- RKYEKEKYKKMI — lower, 0.566 ± 0.013
- RLAPWATGVRMW — higher, 0.6759 ± 0.0016
- RLDAGASAAFKG — higher, 0.7184 ± 0.00093
- RLGCGFGGGEEV — higher, 0.674 ± 0.032
- RLGDALCFSFTV — within error, 0.644 ± 0.032
- RLGGGGCVWVRG — higher, 0.683 ± 0.027
- RLGIADHEYPCE — higher, 0.673 ± 0.011
- RLGVWVWGFTPG — higher, 0.742 ± 0.082
- RLGWTTSEELWC — within error, 0.657 ± 0.029
- RLLSPPPPPPPV — within error, 0.701 ± 0.071
- RLLSSPLHPPLP — higher, 0.701 ± 0.018
- RLPLAPFSVTTH — within error, 0.699 ± 0.1
- RLPLASPPHSSP — within error, 0.675 ± 0.056
- RLPLPPSRLVKH — higher, 0.671 ± 0.026
- RLPPGRPPPPPP — within error, 0.602 ± 0.08
- RLPPPSPSLPPL — higher, 0.722 ± 0.063
- RLPQSRLRTPPP — higher, 0.705 ± 0.069
- RLRTVQNLQIVV — within error, 0.658 ± 0.028
- RLSARRSVGGSA — higher, 0.7097 ± 0.0051
- RLSCFLVWFPFW — lower, 0.5924 ± 0.0021
- RLSFAWGGLLVV — lower, 0.523 ± 0.0057
- RLSGDRCSHDAG — higher, 0.6768 ± 0.0037
- RLSRCFDSHLGG — higher, 0.696 ± 0.038
- RLSVWTFCSMVW — lower, 0.555 ± 0.0085
- RLTPFPPRPLPL — within error, 0.767 ± 0.2
- RLVCLVTQSVPH — within error, 0.613 ± 0.021
- RLVNSVAVSFLR — within error, 0.697 ± 0.1
- RLVSPPPLPHRP — higher, 0.688 ± 0.0062
- RMCLDYSFDSLL — higher, 0.673 ± 0.0082
- RMIPYDLIRLTR — higher, 0.705 ± 0.012
- RMKGTNKEGKKK — higher, 0.693 ± 0.054
- RMLHYCTYSLLL — within error, 0.71 ± 0.079
- RNAEVWDNLFEG — higher, 0.6969 ± 0.0061
- RNAGYPALDELS — higher, 0.6861 ± 0.0047
- RNIRINKKVKDI — lower, 0.594 ± 0.032
- RNKINKKKLKKG — higher, 0.7403 ± 0.0062
- RNKRKKNKDKIK — within error, 0.677 ± 0.051
- RNKTNYIQKLTK — higher, 0.665 ± 0.027
- RNNIKIKNTQQN — higher, 0.759 ± 0.045
- RNRRKEMKKGRE — the same, 0.631 ± 0.034
- RNSPLFLESPGS — higher, 0.723 ± 0.034
- RNTIKTKKSNYV — higher, 0.654 ± 0.015
- RPAPSRTYLNLI — higher, 0.674 ± 0.026
- RPASSYPPHSPT — higher, 0.767 ± 0.037
- RPFGRPTSMRHA — within error, 0.616 ± 0.059
- RPFLPPPPHCPP — higher, 0.75 ± 0.036
- RPFVRDFGCAVW — higher, 0.711 ± 0.023
- RPGNIRNNKKKK — higher, 0.688 ± 0.021
- RPIQPATLAYSP — higher, 0.682 ± 0.037
- RPLLPPTFATSF — higher, 0.751 ± 0.038
- RPLPPLIPSSFS — higher, 0.698 ± 0.038
- RPLSDDTDCPCI — within error, 0.748 ± 0.13
- RPLSSSFRTVPS — higher, 0.721 ± 0.037
- RPNTKKHKIGER — higher, 0.719 ± 0.03
- RPPDPPLHHNLP — higher, 0.687 ± 0.014
- RPPFPPPPLPPP — within error, 0.656 ± 0.031
- RPPFRVYDYPLL — within error, 0.671 ± 0.039
- RPPPPHPSPLPL — higher, 0.713 ± 0.052
- RPPPPTAPPPSR — higher, 0.719 ± 0.043
- RPPRPGFCLFLP — higher, 0.652 ± 0.0067
- RPPSNRPPPPSS — higher, 0.698 ± 0.0032
- RPRGRGRSRGDT — within error, 0.633 ± 0.037
- RPRIPLNSSSLS — higher, 0.74 ± 0.037
- RPRLSGGLGGVG — within error, 0.644 ± 0.051
- RPRTSLFPCSLP — within error, 0.711 ± 0.081
- RPTPHVVLPPLP — lower, 0.524 ± 0.067
- RPTPSAPHRTRI — higher, 0.735 ± 0.041
- RQCSGMIMKDVG — higher, 0.73 ± 0.036
- RQDLLILIKQKG — lower, 0.573 ± 0.0072
- RQDRTFEIQGWE — within error, 0.697 ± 0.084
- RQKIRRKSSTKN — higher, 0.704 ± 0.0074
- RQRGNMEIRIRR — higher, 0.709 ± 0.027
- RRAPLRNTSRHR — higher, 0.663 ± 0.021
- RRCTLVERAWRW — within error, 0.628 ± 0.039
- RREGGRQRGGSG — within error, 0.67 ± 0.063
- RREGWYTNRERG — higher, 0.668 ± 0.013
- RRFAKVALLSLR — within error, 0.644 ± 0.12
- RRGAVVLVSPAL — higher, 0.677 ± 0.021
